Source: the supplement of paper PMC11246515
± gives the standard deviation of the averaged measurements.

Test: total protein half-life in vivo (active degradation + dilution); higher = more stable protein
[1] = E. coli NCM3722 delta-clpP delta-lon delta-hslV, growth: N-lim chemostat, doubling time 6 h
[2] = E. coli NCM3722 delta-clpP, growth: N-lim chemostat, doubling time 6 h
[3] = E. coli NCM3722 delta-hslV, growth: N-lim chemostat, doubling time 6 h
[4] = E. coli NCM3722 delta-lon, growth: N-lim chemostat, doubling time 6 h
[5] = E. coli NCM3722 delta-smpB, growth: N-lim chemostat, doubling time 6 h
[6] = wild type E. coli NCM3722, growth: C-lim chemostat, doubling time 3 h
[7] = wild type E. coli NCM3722, growth: C-lim chemostat, doubling time 6 h
[8] = wild type E. coli NCM3722, growth: C-lim chemostat, doubling time 12 h
[9] = wild type E. coli NCM3722, growth: N-lim chemostat, doubling time 6 h
[10] = wild type E. coli NCM3722, growth: N-lim chemostat, doubling time 12 h
[11] = wild type E. coli NCM3722, growth: P-lim chemostat, doubling time 6 h
[12] = wild type E. coli NCM3722, growth: P-lim chemostat, doubling time 12 h

## MSNTYQKRKASKEYGLYNQCKKLNDDELFRLLDDHNSLKRISSARVLQLRGGQDAVRLAIEFCSDKNYIRRDIGAFILGQIKICKKCEDNVFNILNNMALNDKSACVRATAIESTAQRCKKNPIYSPKIVEQSQITAFDKSTNVRRATAFAISVINDKATIPLLINLLKDPNGDVRNWAAFAININKYDNSDIRDCFVEMLQDKNEEVRIEAIIGLSYRKDKRVLSVLCDELKKNTVYDDIIEAAGELGDKTLLPVLDTMLYKFDDNEIITSAIDKLKRS [P0ADK6]
[1]
  total protein half-life in vivo: 5.51 ± 0.25 h
[2]
  total protein half-life in vivo: 4.904 ± 0.018 h
[3]
  total protein half-life in vivo: 2.92 ± 1.5 h
[4]
  total protein half-life in vivo: 2.68 ± 0.43 h
[5]
  total protein half-life in vivo: 1.77 ± 0.26 h
[6]
  total protein half-life in vivo: 2.016 ± 0.02 h
[7]
  total protein half-life in vivo: 3.9 ± 0.61 h
[8]
  total protein half-life in vivo: 5.23 ± 0.093 h
[9]
  total protein half-life in vivo: 2.17 ± 0.22 h
[10]
  total protein half-life in vivo: 2.62 ± 0.074 h
[11]
  total protein half-life in vivo: 2.65 ± 0.32 h
[12]
  total protein half-life in vivo: 4.89 ± 1 h

## MDIPRIFTISESEHRIHNPFTEEKYATLGRVLRMKPGTRILDLGSGSGEMLCTWARDHGITGTGIDMSSLFTAQAKRRAEELGVSERVHFIHNDAAGYVANEKCDVAACVGATWIAGGFAGAEELLAQSLKPGGIMLIGEPYWRQLPATEEIAQACGVSSTSDFLTLPGLVGAFDDLGYDVVEMVLADQEGWDRYEAAKWLTMRRWLEANPDDDFAAEVRAELNIAPKRYVTYARECFGWGVFALIAR
[1]
  total protein half-life in vivo: 5.64 ± 0.16 h
[3]
  total protein half-life in vivo: 5.71 ± 1.8 h
[5]
  total protein half-life in vivo: 3.54 ± 0.12 h
[6]
  total protein half-life in vivo: 2.7 ± 0.65 h
[7]
  total protein half-life in vivo: 4.93 ± 0.38 h
[8]
  total protein half-life in vivo: 9.89 ± 1.2 h
[9]
  total protein half-life in vivo: 3.97 h
[10]
  total protein half-life in vivo: 8.49 h
[11]
  total protein half-life in vivo: 7.11 h
[12]
  total protein half-life in vivo: 12.41 ± 0.083 h

## MSAGSPKFTVRRIAALSLVSLWLAGCSDTSNPPAPVSSVNGNAPANTNSGMLITPPPKMGTTSTAQQPQIQPVQQPQIQATQQPQIQPVQPVAQQPVQMENGRIVYNRQYGNIPKGSYSGSTYTVKKGDTLFYIAWITGNDFRDLAQRNNIQAPYALNVGQTLQVGNASGTPITGGNAITQADAAEQGVVIKPAQNSTVAVASQPTITYSESSGEQSANKMLPNNKPTATTVTAPVTVPTASTTEPTVSSTSTSTPISTWRWPTEGKVIETFGASEGGNKGIDIAGSKGQAIIATADGRVVYAGNALRGYGNLIIIKHNDDYLSAYAHNDTMLVREQQEVKAGQKIATMGSTGTSSTRLHFEIRYKGKSVNPLRYLPQR [P0ADA3]
[1]
  total protein half-life in vivo: 5.97 ± 0.43 h
[2]
  total protein half-life in vivo: 6.2 ± 0.18 h
[3]
  total protein half-life in vivo: 6.44 ± 0.29 h
[4]
  total protein half-life in vivo: 7.02 ± 0.32 h
[5]
  total protein half-life in vivo: 6.32 ± 0.11 h
[6]
  total protein half-life in vivo: 2.926 ± 0.019 h
[7]
  total protein half-life in vivo: 5.92 ± 0.28 h
[8]
  total protein half-life in vivo: 12.8 ± 3.5 h
[9]
  total protein half-life in vivo: 6.01 ± 0.067 h
[11]
  total protein half-life in vivo: 5.81 ± 0.16 h
[12]
  total protein half-life in vivo: 12 ± 0.81 h

## MTILSLSRFMLAGVLLASFNASAIPGFWQQGYGQGNTEYSVTEASGKTFTINCTGNPDQNGFYQHSVFLTLADDKMVSSHDDDTTITVVMDHQQYIIPSSLGWRNGDNAWFDFISNISEAGQFDVYVNDHKAGTFTADRKNAEKVLSTLGDCSND
[8]
  total protein half-life in vivo: 5.33 h

## MTPGEVRRLYFIIRTFLSYGLDELIPKMRITLPLRLWRYSLFWMPNRHKDKLLGERLRLALQELGPVWIKFGQMLSTRRDLFPPHIADQLALLQDKVAPFDGKLAKQQIEAAMGGLPVEAWFDDFEIKPLASASIAQVHTARLKSNGKEVVIKVIRPDILPVIKADLKLIYRLARWVPRLLPDGRRLRPTEVVREYEKTLIDELNLLRESANAIQLRRNFEDSPMLYIPEVYPDYCSEGMMVMERIYGIPVSDVAALEKNGTNMKLLAERGVQVFFTQVFRDSFFHADMHPGNIFVSYEHPENPKYIGIDCGIVGSLNKEDKRYLAENFIAFFNRDYRKVAELHVDSGWVPPDTNVEEFEFAIRTVCEPIFEKPLAEISFGHVLLNLFNTARRFNMEVQPQLVLLQKTLLYVEGVGRQLYPQLDLWKTAKPFLESWIKDQVGIPALVRAFKEKAPFWVEKMPELPELVYDSLRQGKYLQHSVDKIARELQSNHVRQGQSRYFLGIGATLVLSGTFLLVSRPEWGLMPGWLMAGGLIAWFVGWRKTR [P0A6A0]
[1]
  total protein half-life in vivo: 6.52 ± 0.12 h
[2]
  total protein half-life in vivo: 6.43 ± 0.4 h
[4]
  total protein half-life in vivo: 5.96 ± 0.34 h
[5]
  total protein half-life in vivo: 5.829 ± 0.037 h
[7]
  total protein half-life in vivo: 6.626 ± 0.057 h
[8]
  total protein half-life in vivo: 12.4 ± 1.3 h
[9]
  total protein half-life in vivo: 6.04 ± 0.33 h
[10]
  total protein half-life in vivo: 12.3 ± 0.45 h
[11]
  total protein half-life in vivo: 6.6 ± 0.39 h
[12]
  total protein half-life in vivo: 12.8 ± 0.67 h

## MSHLAELVASAKAAISQASDVAALDNVRVEYLGKKGHLTLQMTTLRELPPEERPAAGAVINEAKEQVQQALNARKAELESAALNARLAAETIDVSLPGRRIENGGLHPVTRTIDRIESFFGELGFTVATGPEIEDDYHNFDALNIPGHHPARADHDTFWFDTTRLLRTQTSGVQIRTMKAQQPPIRIIAPGRVYRNDYDQTHTPMFHQMEGLIVDTNISFTNLKGTLHDFLRNFFEEDLQIRFRPSYFPFTEPSAEVDVMGKNGKWLEVLGCGMVHPNVLRNVGIDPEVYSGFAFGMGMERLTMLRYGVTDLRSFFENDLRFLKQFK
[1]
  total protein half-life in vivo: 5.84 ± 0.27 h
[2]
  total protein half-life in vivo: 6.11 ± 0.96 h
[3]
  total protein half-life in vivo: 5.72 ± 0.43 h
[4]
  total protein half-life in vivo: 6.07 ± 0.69 h
[5]
  total protein half-life in vivo: 4.98 ± 0.13 h
[6]
  total protein half-life in vivo: 3.49 ± 0.22 h
[7]
  total protein half-life in vivo: 6.19 ± 0.32 h
[8]
  total protein half-life in vivo: 12.5 ± 0.82 h
[9]
  total protein half-life in vivo: 5.37 ± 0.42 h
[10]
  total protein half-life in vivo: 9.85 ± 0.2 h
[11]
  total protein half-life in vivo: 6.28 ± 0.36 h
[12]
  total protein half-life in vivo: 12.91 ± 0.048 h

## MLHTANPVIKHKAGLLNLAEELSNVSKACKIMGVSRDTFYRYRELVAEGGVDAQINRSRRAPNLKNRTDEATEQAVVDYAVAFPTHGQHRASNELRKQGVFISDSGVRSVWLLHNLENLKRRY
[1]
  total protein half-life in vivo: 5.09 ± 0.95 h

## MISANRPIINLDLDLLRTFVAVADLNTFAAAAAAVCRTQSAVSQQMQRLEQLVGKELFARHGRNKLLTEHGIQLLGYARKILRFNDEACSSLMFSNLQGVLTIGASDESADTILPFLLNRVSSVYPKLALDVRVKRNAYMAEMLESQEVDLMVTTHRPSAFKALNLRTSPTHWYCAAEYILQKGEPIPLVLLDDPSPFRDMVLATLNKADIPWRLAYVASTLPAVRAAVKAGLGVTARPVEMMSPDLRVLSGVDGLPPLPDTEYLLCYDPSSNNELAQVIYQAMESYHNPWQYSPMSAPEGDDSLLIERDIE
[2]
  total protein half-life in vivo: 5.56 ± 0.33 h
[3]
  total protein half-life in vivo: 2.546 ± 0.023 h
[4]
  total protein half-life in vivo: 3.25 h
[5]
  total protein half-life in vivo: 2.713 ± 0.022 h
[6]
  total protein half-life in vivo: 2.45 ± 0.064 h
[7]
  total protein half-life in vivo: 4.7 ± 0.26 h
[8]
  total protein half-life in vivo: 7.62 ± 0.41 h
[9]
  total protein half-life in vivo: 3.28 ± 1.1 h
[10]
  total protein half-life in vivo: 3.66 ± 0.051 h
[11]
  total protein half-life in vivo: 3.43 ± 0.079 h
[12]
  total protein half-life in vivo: 6.34 ± 0.77 h

## MGSINLRIDDELKARSYAALEKMGVTPSEALRLMLEYIADNERLPFKQTLLSDEDAELVEIVKERLRNPKPVRVTLDEL [P0C079]
[1]
  total protein half-life in vivo: 3.41 ± 0.82 h
[2]
  total protein half-life in vivo: 1.33 h
[7]
  total protein half-life in vivo: 1.45 h
[12]
  total protein half-life in vivo: 2.75 h
